Source: publication PMC5499739, “An RRM–ZnF RNA recognition module targets RBM10 to exonic sequences to promote exon exclusion”

Molecular target: T1, RBM10 RRM1-ZnF (Homo sapiens, UniProt P98175 129-242)
T1 sequence: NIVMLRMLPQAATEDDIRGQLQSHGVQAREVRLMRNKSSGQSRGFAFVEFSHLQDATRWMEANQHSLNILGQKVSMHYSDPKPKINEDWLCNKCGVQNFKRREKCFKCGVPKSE
Experiment: ITC; 10 uM ZnCl2; 10 mM sodium phosphate pH 6.9, 50 mM NaCl, 1 mM TCEP (+10 uM ZnCl2 for ZnF constructs); ITC 25 C; NMR 298 or 310 K
Details: protein: recombinant; tags: His6 or His6-SUMO3, cleaved with HRV 3C

Molecule | binding signal
CUGUGGU (ssRNA) | ~3 fold decrease in affinity vs CUGUGGA

Molecular target: T2, RBM10 RRM1-ZnF-RRM2 (Homo sapiens, UniProt P98175 129-384)
T2 sequence: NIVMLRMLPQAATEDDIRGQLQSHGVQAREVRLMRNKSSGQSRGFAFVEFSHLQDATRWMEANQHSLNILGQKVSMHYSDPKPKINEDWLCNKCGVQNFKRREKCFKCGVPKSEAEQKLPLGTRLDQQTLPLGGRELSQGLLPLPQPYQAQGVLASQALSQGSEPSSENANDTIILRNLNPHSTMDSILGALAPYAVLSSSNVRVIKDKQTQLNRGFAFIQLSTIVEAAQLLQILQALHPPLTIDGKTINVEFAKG
Experiment: NMR; 10 uM ZnCl2; RRM1-ZnF slow exchange, Kd in nM range; RRM2 second weak event, Kd in uM range; 10 mM sodium phosphate pH 6.9, 50 mM NaCl, 1 mM TCEP (+10 uM ZnCl2 for ZnF constructs); ITC 25 C; NMR 298 or 310 K
Details: protein: recombinant; tags: His6 or His6-SUMO3, cleaved with HRV 3C

Molecule | binding result
CUGUGGA (ssRNA) | binds

Molecular target: T3, RBM10 RRM2 (Homo sapiens, UniProt P98175 300-384)
T3 sequence: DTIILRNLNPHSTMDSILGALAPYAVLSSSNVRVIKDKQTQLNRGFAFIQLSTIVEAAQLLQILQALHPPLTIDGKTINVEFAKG
Experiment: ITC; 10 mM sodium phosphate pH 6.9, 50 mM NaCl, 1 mM TCEP (+10 uM ZnCl2 for ZnF constructs); ITC 25 C; NMR 298 or 310 K
Details: protein: recombinant; tags: His6 or His6-SUMO3, cleaved with HRV 3C

Molecule | Kd [µM] | binding result
CCCAC (ssRNA) | ~7 | –
UAAUA (ssRNA) | – | no binding

Molecular target: T1, RBM10 RRM1-ZnF
Experiment: ITC; 10 uM ZnCl2; 10 mM sodium phosphate pH 6.9, 50 mM NaCl, 1 mM TCEP (+10 uM ZnCl2 for ZnF constructs); ITC 25 C; NMR 298 or 310 K
Details: protein: recombinant; tags: His6 or His6-SUMO3, cleaved with HRV 3C
Remark: another data set of the same source

Molecule | binding result
CUGUGGA (ssRNA) | binds

Molecular target: T4, RBM10 RRM1-ZnF-RRM2 (Homo sapiens) (UniProt P98175)
T4 sequence: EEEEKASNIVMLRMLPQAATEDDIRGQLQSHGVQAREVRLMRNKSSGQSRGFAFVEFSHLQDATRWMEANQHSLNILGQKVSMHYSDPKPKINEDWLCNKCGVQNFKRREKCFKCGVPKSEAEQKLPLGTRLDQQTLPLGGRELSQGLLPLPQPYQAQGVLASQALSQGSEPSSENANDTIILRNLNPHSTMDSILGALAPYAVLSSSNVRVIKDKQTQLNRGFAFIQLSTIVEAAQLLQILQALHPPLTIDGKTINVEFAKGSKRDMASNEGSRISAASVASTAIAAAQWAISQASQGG
Experiment: pulldown
Details: 20 nM protein; 20 mM Hepes pH 7.8, 80 mM KCl, 20 mM NaCl, 10% glycerol, 2 mM DTT; 4 C

Molecule | binding signal (RNAcompete z-score)
AAGGGUG [7-mer AAGGGUG] | 5.29
AGGGAAA [7-mer AGGGAAA] | 4.87
AGUAGGG [7-mer AGUAGGG] | 4.88
GAAAGGA [7-mer GAAAGGA] | 5.67
GAAAGGG [7-mer GAAAGGG] | 5.54
GAAAUGG [7-mer GAAAUGG] | 4.79
GAAGGGG [7-mer GAAGGGG] | 4.83
GAGUGGG [7-mer GAGUGGG] | 4.9
GGAAAGG [7-mer GGAAAGG] | 6.43
GGAAGGG [7-mer GGAAGGG] | 5.56
GGAUGGG [7-mer GGAUGGG] | 4.83
GGGAAGG [7-mer GGGAAGG] | 5.54
GGGAUGG [7-mer GGGAUGG] | 5.12
GGUAAGG [7-mer GGUAAGG] | 4.92
GGUAGGG [7-mer GGUAGGG] | 4.79

Molecular target: T5, RBM10 RRM1-ZnF (Homo sapiens) (UniProt P98175)
T5 sequence: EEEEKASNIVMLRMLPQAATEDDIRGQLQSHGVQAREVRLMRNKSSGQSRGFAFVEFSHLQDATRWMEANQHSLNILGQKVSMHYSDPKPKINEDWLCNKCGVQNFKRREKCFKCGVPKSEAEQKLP
Experiment: pulldown
Details: 20 nM protein; 20 mM Hepes pH 7.8, 80 mM KCl, 20 mM NaCl, 10% glycerol, 2 mM DTT; 4 C

Molecule | binding signal (RNAcompete z-score)
AAAGGGU [7-mer AAAGGGU] | 5
AAGGGUG [7-mer AAGGGUG] | 5.25
GAAAGGA [7-mer GAAAGGA] | 5.87
GAAAGGG [7-mer GAAAGGG] | 6.04
GAAAUGG [7-mer GAAAUGG] | 5.03
GAAGGGG [7-mer GAAGGGG] | 5.25
GAGUGGG [7-mer GAGUGGG] | 4.99
GGAAAGG [7-mer GGAAAGG] | 6.53
GGAAGGG [7-mer GGAAGGG] | 6
GGAUGGG [7-mer GGAUGGG] | 5.66
GGGAAGG [7-mer GGGAAGG] | 5.91
GGGAUGG [7-mer GGGAUGG] | 5.71
GGUAAGG [7-mer GGUAAGG] | 4.97
GGUGGGG [7-mer GGUGGGG] | 5.21
GGUUGGG [7-mer GGUUGGG] | 5.27

Molecular target: T1, RBM10 RRM1-ZnF
Experiment: ITC; 10 uM ZnCl2; 10 mM sodium phosphate pH 6.9, 50 mM NaCl, 1 mM TCEP (+10 uM ZnCl2 for ZnF constructs); ITC 25 C; NMR 298 or 310 K
Details: protein: recombinant; tags: His6 or His6-SUMO3, cleaved with HRV 3C
Remark: another data set of the same source

Molecule | binding signal
UGUGGA (ssRNA) | ~2 fold decrease in affinity vs CUGUGGA
CAGUGGA (ssRNA) | < 2 fold decrease in affinity vs CUGUGGA
CUAUGGA (ssRNA) | ~5 fold decrease in affinity vs CUGUGGA
CUGAGGA (ssRNA) | < 2 fold decrease in affinity vs CUGUGGA
